In article PMC2856694:

Biological target: T1, gp96 from normal mouse organs (mouse (endogenous in mouse organs)), P08113
T1 chain: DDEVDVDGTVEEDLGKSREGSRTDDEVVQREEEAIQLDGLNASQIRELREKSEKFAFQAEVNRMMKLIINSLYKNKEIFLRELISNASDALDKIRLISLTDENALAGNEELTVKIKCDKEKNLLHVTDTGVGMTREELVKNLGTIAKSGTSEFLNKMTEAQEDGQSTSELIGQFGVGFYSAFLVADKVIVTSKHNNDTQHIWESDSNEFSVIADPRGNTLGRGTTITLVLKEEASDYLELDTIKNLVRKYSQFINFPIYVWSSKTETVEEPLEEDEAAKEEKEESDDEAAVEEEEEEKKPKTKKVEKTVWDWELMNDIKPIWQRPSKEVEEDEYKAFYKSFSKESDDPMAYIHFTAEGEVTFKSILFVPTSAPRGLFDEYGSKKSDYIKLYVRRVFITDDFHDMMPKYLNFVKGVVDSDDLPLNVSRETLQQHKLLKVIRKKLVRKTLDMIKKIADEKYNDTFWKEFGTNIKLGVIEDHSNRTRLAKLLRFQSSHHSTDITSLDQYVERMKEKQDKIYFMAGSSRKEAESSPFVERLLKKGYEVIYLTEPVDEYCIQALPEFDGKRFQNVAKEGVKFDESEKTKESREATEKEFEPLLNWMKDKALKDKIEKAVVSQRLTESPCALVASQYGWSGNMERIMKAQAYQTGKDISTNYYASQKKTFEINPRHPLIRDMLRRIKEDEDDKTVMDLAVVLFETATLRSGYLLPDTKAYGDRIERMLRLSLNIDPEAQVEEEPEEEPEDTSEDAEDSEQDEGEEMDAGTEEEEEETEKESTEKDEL
Assay: non-reducing SDS-PAGE with immunoblot
Details: remark: other sources report otherwise

percent of total gp96 migrating at ~200 kDa (disulfide-linked dimer): < 50%
B1: gp96 from normal mouse organs, P08113 22-802 (natural protein)
chain: T1 chain
